Residue numbers refer to the chain shown, from its start.
B1: MOR021458 (antibody, V domains shown)
VH: QVQLLESGGGLVQPGGSLRLSCAASGFTFSDYALHWVRQAPGKGLEWVSSISYVGGFIYYADSVKGRFTISRDNSKNTLYLQMNSLRAEDTAVYYCARSPGLTSYHDSWGQGTLVTVSS
VL: DIVLTQPPSVSGAPGQRVTISCSGSSSNIGSNYVSWYQQLPGTAPKLLIHSNSHRPSGVPDRFSGSKSGTSASLAITGLQAEDEADYYCQSWDYESERVVFGGGTKLTVLG
notes: IgG (human IgG1f LALA); parent MOR20144 with the printed HCDR2 stretch exchanged
B2: MOR021462 (antibody, V domains shown)
VH: B1 VH with S50G, V54Q, Y59F
VL: B1 VL
notes: as for B1
B3: MOR021469 (antibody, V domains shown)
VH: B1 VH with S50A, V54Q, Y59F
VL: B1 VL
notes: as for B1
B4: MOR021470 (antibody, V domains shown)
VH: B1 VH with S50V, V54A, G56A, I58T
VL: B1 VL
notes: as for B1
B5: MOR021463 (antibody, V domains shown)
VH: B1 VH with S50V, V54M, I58K
VL: B1 VL
notes: as for B1
B6: MOR021461 (antibody, V domains shown)
VH: B1 VH with S50V, V54A, I58T
VL: B1 VL
notes: as for B1
B7: MOR021465 (antibody, V domains shown)
VH: B1 VH with S50V, V54Q, G56A
VL: B1 VL
notes: as for B1
B8: MOR021466 (antibody, V domains shown)
VH: B1 VH with S50V, V54M, I58K, Y59F
VL: B1 VL
notes: as for B1
B9: MOR021459 (antibody, V domains shown)
VH: B1 VH with S50V, I58K, Y59F
VL: B1 VL
notes: as for B1
B10: MOR021467 (antibody, V domains shown)
VH: B1 VH with S50V, V54Q, I58T, Y59F
VL: B1 VL
notes: as for B1
B11: MOR021443 (antibody, V domains shown)
VH: QVQLVQSGAEVKKPGESLKISCKGSGYSFTNYWIAWVRQMPGKGLEWMGRIFPGKSETSYSPSFQGQVTISADKSISTAYLQWSSLKASDTAMYYCARGKRGATHPTQYEGWEVYGFDPWGQGTLVTVSS
VL: DIELTQPPSVSVSPGQTASITCSGDALGGKYASWYQQKPGQAPVLVIYDDNKRPSGIPERFSGSNSGNTATLTISGTQAEDEADYYCQSWAFYSGVFGGGTKLTVLG
notes: IgG (human IgG1f LALA); parent MOR20133 with the printed HCDR2 stretch exchanged
B12: MOR021445 (antibody, V domains shown)
VH: B11 VH with R50A, F52R, G54E, K55W, S59K
VL: B11 VL
notes: as for B11
B13: MOR021444 (antibody, V domains shown)
VH: B11 VH with F52E, G54L, K55S, E57T, S59E
VL: B11 VL
notes: as for B11
B14: MOR021434 (antibody, V domains shown)
VH: QVQLVQSGAEVKKPGSSVKVSCKASGGTFSDYAISWVRQAPGQGLEWMGGIVPILGAANYAQKFQGRVTITADESTSTAYMELSSLRSEDTAVYYCARDSSTSYYYYFDYWGQGTLVTVSS
VL: DIQMTQSPSSLSASVGDRVTITCRASQDINSWLAWYQQKPGKAPKLLIYQASNLQSGVPSRFSGSGSGTDFTLTISSLQPEDFATYYCQQIDHTPFTFGQGTKVEIKR
notes: IgG (human IgG1f LALA); parent MOR20159 with the printed HCDR2 stretch exchanged
B15: MOR021439 (antibody, V domains shown)
VH: B14 VH with L55V, A57T
VL: B14 VL with I91M, D92H, H93R, T94F, F96M
notes: IgG (human IgG1f LALA); parent MOR20159 with the printed LCDR3 stretch exchanged
B16: MOR021436 (antibody, V domains shown)
VH: B14 VH with L55V, A57T
VL: B14 VL with I91M, D92Q, H93T, T94S, P95L, F96I
notes: as for B15
B17: MOR021441 (antibody, V domains shown)
VH: B14 VH with L55V, A57T
VL: B14 VL with I91M, D92K, H93T, T94F, F96I
notes: as for B15
B18: MOR021438 (antibody, V domains shown)
VH: B14 VH with L55V, A57T
VL: B14 VL with I91M, D92H, H93R, T94H, F96I
notes: as for B15
B19: MOR021437 (antibody, V domains shown)
VH: B14 VH with L55V, A57T
VL: B14 VL with I91M, D92K, H93I, T94S, P95L, F96I
notes: as for B15
B20: MOR021442 (antibody, V domains shown)
VH: B14 VH with L55V, A57T
VL: B14 VL with I91M, D92H, H93R, T94L, F96V
notes: as for B15
B21: MOR021440 (antibody, V domains shown)
VH: B14 VH with L55V, A57T
VL: B14 VL with I91M, D92Q, H93E, T94S, P95L, F96L
notes: as for B15
B22: MOR021553 (antibody, V domains shown)
VH: QVQLLESGGGLVQSGGSLRLSCAASGFTFRSGAAMHWVRQAPGKGLEWVSSIEYFGSATLYADSVKGRFTISRDNSKNTLYLQMNSLRAEDTAVYYCARNFKYAMDYWGQGTLVTVSS
VL: DIALTQPASVSGSPGQSITISCTGTSSDVGSINYVSWYQQHPGKAPKMIYAVSYRPSGVSNRFSGSKSGNTASLTISGLQAEDEADYYCQVWDWRSDSRVFGGGTKLTVLG
notes: IgG (human IgG1f LALA); parent MOR20148 with the printed HCDR2 stretch exchanged
B23: MOR021451 (antibody, V domains shown)
VH: QVQLVQSGAEVKKPGSSVKVSCKASGGTFSSYAISWVRQAPGQGLEWMGRIVPGFVYTSYAQKFQGRVTITADESTSTAYMELSSLRSEDTAVYYCARDPLYRSDYYYHWFDFWGQGTLVTVSS
VL: DIALTQPASVSGSPGQSITISCTGTSSDVGNFNYVSWYQQHPGKAPKLMIYGVNNRPSGVSNRFSGSKSGNTASLTISGLQAEDEADYYCAAYGWALDEVVFGGGTKLTVLG
notes: IgG (human IgG1f LALA); parent MOR20152 with the printed HCDR2 stretch exchanged
B24: MOR021455 (antibody, V domains shown)
VH: QVQLVQSGAEVKKPGSSVKVSCKASGGTFSSYAISWVRQAPGQGLEWMGRIIPQWAGTPEYAQKFQGRVTITADESTSTAYMELSSLRSEDTAVYYCARDPLYRSDYYYHWFDFWGQGTLVTVSS
VL: B23 VL
notes: as for B23
B25: MOR021454 (antibody, V domains shown)
VH: QVQLVESGGGLVKPGGSLRLSCAASGFTFSSYALSWVRQAPGKGLEWVGRIRHYKWGGTTEYAAPVKGRFTISRDDSKNTLYLQMNSLKTEDTAVYYCARDFWADHYYYFDYWGQGTLVTVSS
VL: DIALTQPASVSGSPGQSITISCTGTSSDVGYINYVNWYQQHPGKAPKLMIYEVSNRPSGVSNRFSGSKSGNTASLTISGLQAEDEADYYCASWDWYDNVVFGGGTKLTVLG
notes: IgG (human IgG1f LALA); parent MOR20151 with the printed HCDR2 stretch exchanged
B26: MOR021448 (antibody, V domains shown)
VH: QVQLVQSGAEVKKPGSSVKVSCKASGGTFSDYAISWVRQAPGQGLEWMGRVIRPYYGWTEYAQKFQGRVTITADESTSTAYMELSSLRSEDTAVYYCAREPSPLYGPYSDYVMDPWGQGTLVTVSS
VL: B25 VL with I32F, Y34F, N36S, E52D, W93Y, D94G, Y96D, D97S, N98S, V99W
notes: IgG (human IgG1f LALA); parent MOR20052 with the printed HCDR2 stretch exchanged
B27: MOR021456 (antibody, V domains shown)
VH: B25 VH with H53Y, Y54W, K55P, W56D, G58Y, E61H, P65S
VL: B25 VL
notes: as for B25
B28: MOR021449 (antibody, V domains shown)
VH: QVQLVQSGAEVKKPGSSVKVSCKASGGTFSDYAISWVRQAPGQGLEWMGGIQPGFAGAWYAQKFQGRVTITADESTSTAYMELSSLRSEDTAVYYCAREPSPLYGPYSDYVMDPWGQGTLVTVSS
VL: B25 VL with I32F, Y34F, N36S, E52D, W93Y, D94G, Y96D, D97S, N98S, V99W
notes: as for B26
B29: MOR021457 (antibody, V domains shown)
VH: B25 VH with I51T, H53M, Y54W, K55T, W56V, G58Y, E61H, P65S
VL: B25 VL
notes: as for B25

What follows are binders tested against APP-Avi-soluble human LOX-1(61-273) (human, UniProt P78380 61-273) (assay: SET, IgG vs soluble human LOX-1).
Protocol: Affinity determination for anti-LOX-1 IgGs using Solution Equilibrium Titration (SET) was basically performed as described in the literature (Friguet et al., 1985 J Immunol Methods 77: 305-319). The assays were performed in a 96-well polypropylene plate (Thermo Scientific, Catalog no. AB-1127) using a constant concentration of LOX-1 antibody mixed with different concentrations of non-biotinylated human or cynomolgus monkey LOX-1 protein and incubated at 22° C. for 14 hours with constant shaking (300 rpm).
On a pre-blocked MSD plate (Meso Scale Discovery, catalog no. L21SA) biotinylated human or cynomolgus monkey soluble LOX-1 protein was immobilized and washed afterwards. The equilibrium binding reactions were then applied to the MSD plate with immobilized LOX-1 and incubated for 30 min. The unbound material was removed by washing the plate, and the captured antibody was detected by adding Sulfo-tagged goat anti-human IgG (Meso Scale Discovery, catalog no. R3AJ-1). After incubation and washing 1×MSD read buffer T(Meso Scale Discovery, catalog no. R92TC-2) was added and the plate was developed using a Sector Imager 6000 (Meso Scale Discovery). The data were transferred to Excel for analysis and plotted using GraphPad Prism v5. The KD values were determined by fitting the data to the following equation: […]

Kd | Binder
0.6 pM | B1
0.9 pM | B2
1 pM | B3
0.5 pM | B4
1.3 pM | B5
0.2 pM | B6
1.6 pM | B7
0.6 pM | B8
0.4 pM | B9
0.9 pM | B10
75 pM | B11
30 pM | B12
35 pM | B13
7 pM | B14
3 pM | B15
4 pM | B16
3 pM | B17
2 pM | B18
4 pM | B19
4 pM | B20
6 pM | B21
6 pM | B22
0.1 pM | B23
0.3 pM | B24
0.7 pM | B25
0.3 pM | B26
2 pM | B27
0.3 pM | B28
1 pM | B29
